Data reported in PMC4227782.

Molecular target: T1, MBNL1 (2-260) (UniProt Q9NR56)
T1 sequence: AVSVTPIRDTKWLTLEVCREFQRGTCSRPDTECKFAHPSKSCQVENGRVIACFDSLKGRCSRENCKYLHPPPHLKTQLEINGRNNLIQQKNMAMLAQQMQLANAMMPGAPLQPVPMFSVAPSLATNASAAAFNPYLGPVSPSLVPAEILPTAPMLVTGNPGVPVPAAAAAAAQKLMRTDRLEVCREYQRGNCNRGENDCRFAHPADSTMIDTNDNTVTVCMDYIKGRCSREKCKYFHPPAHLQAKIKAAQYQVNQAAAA
Assay: EMSA
Conditions: 5 mM Mg2+, 0.1 mg/ml heparin, 175 mM NaCl, 20 mM Tris pH 7.5, 1 mM BME, 10% glycerol, 5 mM MgCl2, 0.1 mg/ml heparin, 2 mg/ml BSA, 0.02% xylene cyanol, 0.05% bromophenol blue, 20 min at room …

For CUGCUGCUGCUG [1Ψ(CUG)4], the Kd (1 pseudouridine replacing U, position only in Fig 1B) was 1000 nM.
CUGCUGCUGCUG [1-2'Ome(CUG)4] showed a Kd (1 2'-O-methyl, position only in Fig 1B) of 650 nM.
With CUGCUGCUGCUG [2-2'Ome(CUG)4] the Kd (2 2'-O-methyl, positions only in Fig 1B) was 890 nM.
For CUGCUGCUGCUG [4-2'Ome(CUG)4], the Kd (4 2'-O-methyl, positions only in Fig 1B) was 1000 nM.
For CUGCUGCUGCUG [(CUG)4], the Kd was 300 nM.
Sequence CUGCUGCUGCUG [2Ψ(CUG)4] has a Kd (2 pseudouridines replacing U, positions only in Fig 1B) of 6000 nM.
CUGCUGCUGCUG [4Ψ(CUG)4] was tested, and the Kd (Kd immeasurable, 4 pseudouridines replacing U) was > 5000 nM.
